Measurements published in patent US20250011363A1, “OPTIMIZED SHORTENED PEPTIDE THAT BINDS TO ACETYLCHOLINE RECEPTOR, AND USE THEREOF” (SKINMED CO., LTD., priority 2021, published 2025).

Biological target: acetylcholine receptor (Homo sapiens, UniProt P02708)
Experiment: SPR binding affinity (RU) of optimized 5mer/6mer/7mer peptides, Examples 6-7
Details: 6mer-1 Top sequence; SPR; peptides tested at 10 μM
How it was run: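 Response units from SPR give the binding values listed. Each synthesized peptide was run at 10 μM over the receptor.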

acetylcholine receptor, sequence (P02708 21-457): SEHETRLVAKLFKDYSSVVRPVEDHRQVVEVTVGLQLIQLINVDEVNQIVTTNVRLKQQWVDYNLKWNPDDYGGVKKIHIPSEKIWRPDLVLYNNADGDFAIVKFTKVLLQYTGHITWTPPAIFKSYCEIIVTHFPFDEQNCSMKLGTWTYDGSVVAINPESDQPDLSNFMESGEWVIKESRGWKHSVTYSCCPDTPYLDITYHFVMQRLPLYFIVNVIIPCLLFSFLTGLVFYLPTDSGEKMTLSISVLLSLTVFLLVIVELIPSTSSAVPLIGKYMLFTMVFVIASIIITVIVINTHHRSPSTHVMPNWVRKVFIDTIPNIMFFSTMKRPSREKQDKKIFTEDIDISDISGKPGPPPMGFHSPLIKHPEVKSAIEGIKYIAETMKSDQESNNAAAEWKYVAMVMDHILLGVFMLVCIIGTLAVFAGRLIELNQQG

Row | Substance | Binding affinity
1 | 6mer-1-286 (RKLISK) | 139 Ru
2 | 6mer-1-264 (RRQYQR) | 128 Ru
3 | 6mer-1-257 (RKWVTR) | 124 Ru
4 | 6mer-1-280 (RKLQCK) | 149 Ru
5 | 6mer-1-351 (RRGLRK) | 141 Ru
6 | 6mer-1-305 (RKWISR) | 153 Ru
7 | 6mer-1-381 (RKGFYR) | 124 Ru
8 | 6mer-1-375 (RRVFYR) | 154 Ru
9 | 6mer-1-238 (KKGQQK) | 154 Ru
10 | 6mer-1-352 (RKVFRK) | 142 Ru
11 | 6mer-1-224 (KRGFLR) | 142 Ru
12 | 6mer-1-328 (KRWLQK) | 151 Ru

Same assay, conditions: 6mer-2 Top sequence; SPR; peptides tested at 10 μM

Row | Substance | Binding affinity
13 | 6mer-2-134 (RLFQRK) | 148 Ru
14 | 6mer-2-30 (RQFYKK) | 139 Ru
15 | 6mer-2-91 (KWIYKR) | 121 Ru
16 | 6mer-2-141 (KWYQKK) | 154 Ru
17 | 6mer-2-104 (RGVCRK) | 145 Ru
18 | 6mer-2-167 (KLFQKR) | 145 Ru
19 | 6mer-2-43 (RVITKR) | 146 Ru
20 | 6mer-2-55 (RLFYKK) | 125 Ru

Same assay, conditions: SPR, Resonance Units; 5mer Bottom sequence (bottom combinations); peptides tested at 10 μM

Row | Substance | Binding affinity
21 | 5mer-1013 (KCCVK) | 19 Ru
22 | 5mer-1095 (KAEKR) | 27 Ru
23 | 5mer-652 (RCAAR) | 23 Ru
24 | 5mer-1093 (REEDK) | 32 Ru
25 | 5mer-667 (RDCHR) | 16 Ru
26 | 5mer-1108 (RNPIR) | 19 Ru
27 | 5mer-1062 (RAPWR) | 24 Ru
28 | 5mer-944 (RYEFK) | 25 Ru
29 | 5mer-618 (RMSWK) | 19 Ru
30 | 5mer-684 (KCAER) | 27 Ru
31 | 5mer-1057 (RFDPK) | 13 Ru
32 | 5mer-765 (RNEFR) | 12 Ru
33 | 5mer-925 (KDCFK) | 25 Ru
34 | 5mer-957 (RDCER) | 30 Ru
35 | 5mer-729 (KEPDK) | 23 Ru
36 | 5mer-1066 (RFWVK) | 25 Ru
37 | 5mer-914 (RPTMR) | 26 Ru
38 | 5mer-607 (RIEER) | 25 Ru
39 | 5mer-757 (KYCMR) | 17 Ru

Same assay, conditions: SPR, Resonance Units; peptides tested at 10 μM; 6mer-1 Bottom sequence

Row | Substance | Binding affinity
40 | 6mer-1-1115 (RKCAFR) | 43 Ru
41 | 6mer-1-1177 (RRHTMR) | 21 Ru
42 | 6mer-1-1019 (KRDAWR) | 37 Ru
43 | 6mer-1-1054 (RRMKVK) | 37 Ru
44 | 6mer-1-1011 (RKKPEK) | 35 Ru
45 | 6mer-1-1063 (KKIDHK) | 25 Ru
46 | 6mer-1-1187 (RRHAHK) | 26 Ru
47 | 6mer-1-1005 (RKPPDR) | 26 Ru
48 | 6mer-1-1050 (KKMEDR) | 38 Ru

Same assay, conditions: SPR, Resonance Units; peptides tested at 10 μM; 6mer-1 Bottom sequence (Table 11)

Row | Substance | Binding affinity
49 | 6mer-1-661 (RKPKWR) | 14 Ru
50 | 6mer-1-751 (RRTNFK) | 27 Ru
51 | 6mer-1-626 (KRPDNR) | 27 Ru
52 | 6mer-1-631 (RRYSDR) | 13 Ru
53 | 6mer-1-681 (KKEWKK) | 32 Ru
54 | 6mer-1-680 (KKDPPR) | 27 Ru
55 | 6mer-1-769 (RKMPVK) | 14 Ru

Same assay, conditions: SPR, Resonance Units; peptides tested at 10 μM; 6mer-2 Bottom sequence

Row | Substance | Binding affinity
56 | 6mer-2-880 (RTHHKK) | 12 Ru
57 | 6mer-2-963 (KAKHRR) | 37 Ru
58 | 6mer-2-917 (RFCWRK) | 23 Ru
59 | 6mer-2-621 (RHEPKR) | 32 Ru
60 | 6mer-2-949 (RPNARR) | 39 Ru
61 | 6mer-2-796 (RMMARR) | 32 Ru
62 | 6mer-2-967 (RTSNKK) | 35 Ru
63 | 6mer-2-605 (KNCGKK) | 17 Ru
64 | 6mer-2-950 (KYNKRR) | 26 Ru
65 | 6mer-2-624 (KPPIRK) | 33 Ru
66 | 6mer-2-835 (RHCGKR) | 20 Ru
67 | 6mer-2-925 (RASVKR) | 23 Ru
68 | 6mer-2-955 (RMPERR) | 29 Ru
69 | 6mer-2-891 (RTSIRK) | 28 Ru
70 | 6mer-2-974 (RFDDRR) | 38 Ru
71 | 6mer-2-781 (KTMNRK) | 28 Ru
72 | 6mer-2-905 (RPKERR) | 26 Ru
73 | 6mer-2-930 (RTWIKR) | 37 Ru
74 | 6mer-2-863 (RKHWRR) | 17 Ru
75 | 6mer-2-951 (RADEKK) | 42 Ru

Same assay, conditions: SPR, Resonance Units; peptides tested at 10 μM; 6mer-2 Top sequence

Row | Substance | Binding affinity
76 | 6mer-2-576 (KGVSRR) | 139 Ru
77 | 6mer-2-490 (RRYQKK) | 145 Ru
78 | 6mer-2-430 (RWFRRR) | 139 Ru
79 | 6mer-2-461 (KSVCRR) | 149 Ru
80 | 6mer-2-543 (RRQYRR) | 144 Ru

Same assay, conditions: SPR, Resonance Units; peptides tested at 10 μM; 6mer-2 Top sequence (Table 12)

Row | Substance | Binding affinity
81 | 6mer-2-336 (KLITKR) | 135 Ru
82 | 6mer-2-246 (KWISKK) | 123 Ru
83 | 6mer-2-351 (KLYTKR) | 135 Ru
84 | 6mer-2-226 (RLLCKR) | 154 Ru
85 | 6mer-2-207 (KWVSKR) | 153 Ru
86 | 6mer-2-272 (KWRSRK) | 154 Ru
87 | 6mer-2-281 (KGQRKK) | 149 Ru
88 | 6mer-2-338 (RSVQKR) | 145 Ru
89 | 6mer-2-288 (KSRLRK) | 122 Ru
90 | 6mer-2-310 (KLFQRK) | 149 Ru
91 | 6mer-2-206 (KWQYKK) | 148 Ru
92 | 6mer-2-280 (KSIYRR) | 153 Ru
93 | 6mer-2-342 (KRYRKK) | 145 Ru

Same assay, conditions: SPR, peptides at 10 μM; 6mer-2 Bottom sequence

Row | Substance | Binding affinity
94 | 6mer-2-1138 (KAHFKK) | 42 Ru
95 | 6mer-2-1067 (RDEIRK) | 29 Ru
96 | 6mer-2-1084 (REKPRK) | 29 Ru
97 | 6mer-2-1122 (RCNFKK) | 22 Ru
98 | 6mer-2-999 (RATIKR) | 31 Ru
99 | 6mer-2-1133 (KMKMKK) | 22 Ru
100 | 6mer-2-1075 (RHMERK) | 31 Ru
101 | 6mer-2-1035 (RPPVKK) | 39 Ru

Same assay, conditions: SPR, peptides tested at 10 μM; 5mer Top sequence

Row | Substance | Binding affinity
102 | 5mer-179 (RLYTK) | 55 Ru
103 | 5mer-71 (KLQSK) | 68 Ru
104 | 5mer-462 (RWQSK) | 69 Ru
105 | 5mer-48 (RVYLR) | 62 Ru
106 | 5mer-49 (KWRTR) | 62 Ru
107 | 5mer-12 (RVFLR) | 70 Ru
108 | 5mer-355 (KLLYR) | 87 Ru
109 | 5mer-9 (RGVQR) | 77 Ru
110 | 5mer-89 (KRITK) | 77 Ru
111 | 5mer-443 (RGFTK) | 80 Ru
112 | 5mer-134 (RQFSK) | 61 Ru
113 | 5mer-185 (RRYRR) | 86 Ru
114 | 5mer-140 (KWRLR) | 69 Ru

Same assay, conditions: SPR, peptides tested at 10 μM; 5mer Top sequence (top combinations)

Row | Substance | Binding affinity
115 | 5mer-578 (KSVLR) | 65 Ru
116 | 5mer-260 (KVYRR) | 57 Ru
117 | 5mer-269 (RLFLR) | 85 Ru
118 | 5mer-272 (KGYQR) | 83 Ru
119 | 5mer-219 (KQYTR) | 55 Ru
120 | 5mer-266 (KSYQK) | 66 Ru

Same assay, conditions: SPR, peptides tested at 10 μM; 6mer-1 Bottom sequence (Table 11)

Row | Substance | Binding affinity
121 | 6mer-1-884 (KRYTKR) | 26 Ru
122 | 6mer-1-951 (RKAMDK) | 29 Ru
123 | 6mer-1-835 (KRTADK) | 26 Ru
124 | 6mer-1-909 (RKFCMR) | 33 Ru
125 | 6mer-1-985 (KRKSER) | 22 Ru
126 | 6mer-1-817 (RRIMKR) | 16 Ru
127 | 6mer-1-915 (RKDTWK) | 27 Ru
128 | 6mer-1-862 (KKHSEK) | 32 Ru

Same assay, conditions: SPR, peptides tested at 10 μM; 6mer-1 Top sequence

Row | Substance | Binding affinity
129 | 6mer-1-466 (KRSICR) | 148 Ru
130 | 6mer-1-552 (RKRYRK) | 144 Ru
131 | 6mer-1-427 (KRWVLR) | 147 Ru
132 | 6mer-1-477 (KRQQTK) | 145 Ru
133 | 6mer-1-595 (KKSLCK) | 121 Ru
134 | 6mer-1-505 (RRRFTR) | 148 Ru

Same assay, conditions: SPR, peptides tested at 10 μM; 6mer-1 Top sequence (top combinations)

Row | Substance | Binding affinity
135 | 6mer-1-70 (KKLLYR) | 139 Ru
136 | 6mer-1-138 (RKVVTR) | 124 Ru
137 | 6mer-1-125 (KRRLCR) | 135 Ru
138 | 6mer-1-124 (KRVQQK) | 137 Ru
139 | 6mer-1-86 (KKWRQK) | 142 Ru
140 | 6mer-1-54 (RRRVCK) | 144 Ru

Same assay, conditions: SPR; XRRGVRR-7mer and RRGVRRX-7mer

Row | Substance | Binding affinity, values relative to the RRGVRR sequence
141 | 3645 (PRRGVRR) [compound 3645] | 138

Same assay, conditions: SPR; XRRQRR-6mer and RRQRRX-6mer

Row | Substance | Binding affinity, relative value to the RRQRR sequence
142 | 3620 (ERRQRR) [compound 3620] | 147
143 | 3609 (WRRQRR) [compound 3609] | 138

Same assay, conditions: SPR; peptides tested at 10 μM; 5mer Bottom sequence

Row | Substance | Binding affinity
144 | 5mer-863 (REANR) | 16 Ru
145 | 5mer-880 (RCDKK) | 17 Ru
146 | 5mer-1134 (RTCKR) | 26 Ru
147 | 5mer-839 (RHHDK) | 26 Ru
148 | 5mer-850 (KYDIR) | 13 Ru
149 | 5mer-831 (RAAGK) | 24 Ru
150 | 5mer-859 (KHNAR) | 26 Ru
